Test results taken from publication PMC3249379.
Read-outs that look alike come from different tables or passages of the source.

Tests used:
Test in all cases: AUC
[1] = target: GluA4 flip ectodomain, L484Y mutant (R. norvegicus)
[2] = target: GluA4 flip ectodomain, L484Y mutant (R. norvegicus); remark: listed apart in the source
[3] = target: GluA4 flip ectodomain, wild type (NTD and LBD in a tandem array) (R. norvegicus)

Row | Kd [1] [nM] | stoichiometry N [1] | Kd [2] [nM] | Kd [3] [nM] | stoichiometry N [3] | Substance
1 | 1100 | 4 | 1500 |  |  | GluA4 flip ectodomain, L484Y mutant (domain or fragment)
2 |  |  |  | 300 | 2 | GluA4 flip ectodomain, wild type (NTD and LBD in a tandem array) (domain or fragment)
